Source: patent publication US9457062B2, “Chaperonin 10-induced immunomodulation” (CBIO LIMITED, priority 2005, dated 2016)
Blank lines part the entries; values can stand above or below the molecule they belong to.

Key:
GM1 = experiment: FRET with GM1 (lipid rafts) on MonoMac 6 cells; format: binding, human; conditions: donor GM1
Description: (§1) Cell labeling for FRET. MonoMac 6 cells (a human monocytic cell line) were labeled with 100 μl of a mixture of donor conjugated antibody (Cy3) and acceptor conjugated antibody (Cy5). For labelling of Cpn10, an anti-Cpn10 rabbit polyclonal antibody was used. The cells were rinsed twice in PBS/0.02% BSA, prior to fixation with 4% formaldehyde for 15 min. The cells were fixed in order to prevent potential re-organisation of the proteins during the course of the experiment. Confocal imaging. Cells were imaged on a Carl Zeiss, Inc. LSM510 confocal microscope (with an Axiovert 200 fluorescent microscope) using a 1.4 NA 63× Zeiss objective. The images were analysed using LSM 2.5 image analysis software (Carl Zeiss, Inc.). Cy3 and Cy5 were detected using the appropriate filter sets. Using typical exposure times for image acquisition (less than 5 s), no fluorescence was observed from a Cy3-labelled specimen using the Cy5 filters, nor was Cy5 fluorescence detected using the Cy3 filter sets. FRET measurements. FRET is a non-invasive imaging technique used to determine molecular proximity. […]
In the present study, FRET was measured using a method as previously described (Kenworthy and Edidin (1998) Journal of Cell Biology 142: 69-84; Kenworthy and Edidin (1998) in Gelb, M. H. (Ed.) Methods in molecular Biology. Humana Press Inc, Totowa, N.J. pp 37-49). […]

CD14 = molecular target: T1, CD14 (Homo sapiens, UniProt P08571); experiment: FRET with CD14 on MonoMac 6 cells; format: binding
T1 construct: MonoMac 6 cells (a human monocytic cell line); endogenous in cells; host or cells: MonoMac 6
T1 sequence (P08571 20-345): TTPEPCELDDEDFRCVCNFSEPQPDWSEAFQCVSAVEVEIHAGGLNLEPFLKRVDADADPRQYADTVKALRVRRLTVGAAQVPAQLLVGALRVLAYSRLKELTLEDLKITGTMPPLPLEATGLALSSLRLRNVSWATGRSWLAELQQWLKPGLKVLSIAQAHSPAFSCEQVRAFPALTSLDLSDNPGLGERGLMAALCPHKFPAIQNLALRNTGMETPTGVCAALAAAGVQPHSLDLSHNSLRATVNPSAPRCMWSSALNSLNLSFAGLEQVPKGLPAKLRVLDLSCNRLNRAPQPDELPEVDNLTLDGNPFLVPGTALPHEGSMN
Description: as §1, with “used. […]” for “used. The cells were rinsed twice in PBS/0.02% BSA, prior to fixation with 4% formaldehyde for 15 min.”, “measurements. […] In the present study,” for “measurements.”, “FRET was measured using” for “FRET is”, “a method as previously described (Kenworthy and […] (1998) Journal of Cell Biology 142: 69-84; Kenworthy and […] (1998) in Gelb, M. H. (Ed.) Methods in” for “a non-invasive imaging technique used to determine”, “molecular Biology. Humana Press Inc, Totowa, N.J. pp 37-49). Briefly, samples were labeled with donor and acceptor conjugated antibodies, and energy transfer was detected as an increase in donor fluorescence (dequenching) after complete photobleaching of the acceptor molecule.” for “molecular proximity.”

TLR4 = molecular target: T2, TLR4 (Homo sapiens, UniProt O00206); experiment: FRET with TLR4 on MonoMac 6 cells; format: binding
T2 construct: endogenous in cells; host or cells: freshly isolated human monocytes; human monocyte-derived DC
T2 sequence (O00206 24-839): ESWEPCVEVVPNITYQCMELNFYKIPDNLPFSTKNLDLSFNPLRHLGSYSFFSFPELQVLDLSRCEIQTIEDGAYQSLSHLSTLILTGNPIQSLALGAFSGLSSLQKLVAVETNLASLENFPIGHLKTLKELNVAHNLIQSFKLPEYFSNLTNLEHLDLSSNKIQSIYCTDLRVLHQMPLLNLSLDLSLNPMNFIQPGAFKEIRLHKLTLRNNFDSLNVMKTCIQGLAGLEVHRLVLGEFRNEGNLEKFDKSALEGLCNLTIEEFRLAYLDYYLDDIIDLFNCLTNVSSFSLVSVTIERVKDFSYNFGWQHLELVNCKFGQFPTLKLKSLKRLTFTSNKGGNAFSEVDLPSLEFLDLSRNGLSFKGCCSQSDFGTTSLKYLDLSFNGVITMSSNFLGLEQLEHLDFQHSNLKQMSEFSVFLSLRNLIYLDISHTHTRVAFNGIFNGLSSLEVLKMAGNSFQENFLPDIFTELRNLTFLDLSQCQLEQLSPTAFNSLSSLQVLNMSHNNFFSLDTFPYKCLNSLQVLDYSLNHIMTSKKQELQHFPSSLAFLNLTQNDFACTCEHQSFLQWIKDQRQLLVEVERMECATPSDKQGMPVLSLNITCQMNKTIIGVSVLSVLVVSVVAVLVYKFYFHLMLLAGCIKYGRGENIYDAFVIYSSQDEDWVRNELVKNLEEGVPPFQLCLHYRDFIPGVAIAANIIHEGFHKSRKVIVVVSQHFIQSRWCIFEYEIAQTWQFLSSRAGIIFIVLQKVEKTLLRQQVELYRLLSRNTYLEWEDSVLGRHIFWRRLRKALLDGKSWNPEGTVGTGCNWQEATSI
Description: as §1, with “used. […]” for “used. The cells were rinsed twice in PBS/0.02% BSA, prior to fixation with 4% formaldehyde for 15 min.”, “measurements. […] In the present study,” for “measurements.”, “FRET was measured using” for “FRET is”, “a method as previously described (Kenworthy and […] (1998) Journal of Cell Biology 142: 69-84; Kenworthy and […] (1998) in Gelb, M. H. (Ed.) Methods in” for “a non-invasive imaging technique used to determine”, “molecular Biology. Humana Press Inc, Totowa, N.J. pp 37-49). Briefly, samples were labeled with donor and acceptor conjugated antibodies, and energy transfer was detected as an increase in donor fluorescence (dequenching) after complete photobleaching of the acceptor molecule.” for “molecular proximity.”

Cpn10 promoter = Cpn10 promoter luciferase reporter (pCAT/LUC-CPN) in RAW264.7 cells; format: cell-based, mouse; conditions: optimal agonist concentrations (FIG. 18H): IFNγ 1 ng/ml, IL-1β 1 ng/ml, TNF-α 100 ng/ml
Excerpt: Reagents. Recombinant human Cpn10 was produced to GMP specifications by BresaGen Limited (Adelaide, Aus) essentially as described previously (Johnson, B. 2005. J. Biol Chem 280:4037-4047). […] For FACS analysis, a cysteine residue was engineered onto the C-terminus of Cpn10 and labeled with AlexFluor647 (Invitrogen) according to manufacturer's instructions. […] TLR ligands and cytokines included: E. coli LPS (strain 055:B5, Sigma), E. coli ultra-pure LPS (0111:B4 Sigma), S. aureus LTA, B. subtilis LTA, S. aureus PGN, B. subtilis PGN, zymosan cell wall from S. cerevisae, poly(I:C), imiquimod R837, CpG ODN 1826 and ODN2216, GpC ODN1826 control, (all from Invivogen, San Diego, Calif.), recombinant mouse IFNγ, (Chemicon), IL-1β (PeproTech), and recombinant human TNF-α (Invivogen). Antibodies. Rabbit polyclonal antibodies were raised against Cpn10 and affinity purified at CBio. […] After 24 h cells were harvested and cell viability assessed by trypan blue dye exclusion. […] Cells were washed, harvested in Cell Culture Lysis Reagent (CCLR, Promega) and firefly luciferase signal measured using the Luciferase Assay System (Promega) and the Wallac Victor 2 Multilabel Counter (Perkin-Elmer). […] Cells were assessed for viability, pooled per condition (n=4), pelleted by centrifugation and resuspended in CCLR.

E ± ΔE (%) energy transfer efficiency (CD14; MM6 cells stimulated with LPS): 4 ± 2.0%
E ± ΔE (%) energy transfer efficiency (CD14; Unstimulated MM6 cells): 6 ± 0.5%
E ± ΔE (%) energy transfer efficiency (TLR4; MM6 cells stimulated with LPS): 6 ± 1.0%
E ± ΔE (%) energy transfer efficiency (TLR4; Unstimulated MM6 cells): 5 ± 1.0%
B1: Hsp60: chaperonin 60, protein folding partner of Cpn10 (protein)
chain: AKDVKFGADARALMLQGVDLLADAVAVTMGPKGRTVIIEQSWGSPKVTKDGVTVAKSIDLKDKYKNIGAKLVQDVANNTNEEAGDGTTTATVLARSIAKEGFEKISKGANPVEIRRGVMLAVDAVIAELKKQSKPVTTPEEIAQVATISANGDKEIGNIISDAMKKVGRKGVITVKDGKTLNDELEIIEGMKFDRGYISPYFINTSKGQKCEFQDAYVLLSEKKISSIQSIVPALEIANAHRKPLVIIAEDVDGEALSTLVLNRLKVGLQVVAVKAPGFGDNRKNQLKDMAIATGGAVFGEEGLTLNLEDVQPHDLGKVGEVIVTKDDAMLLKGKGDKAQIEKRIQEIIEQLDVTTSEYEKEKLNERLAKLSDGVAVLKVGGTSDVEVNEKKDRVTDALNATRAAVEEGIVLGGGCALLRCIPALDSLTPANEDQKIGIEIIKRTLKIPAMTIAKNAGVEGSLIVEKIMQSSSEVGYDAMAGDFVNMVEKGIIDPTKVVRTALLDAAGVASLLTTAEVVVTEIPKEEKDPGMGAMGGMGGGMGGGMF
E ± ΔE (%) energy transfer efficiency (GM1; MM6 cells stimulated with LPS): 8 ± 2.0%
E ± ΔE (%) energy transfer efficiency (GM1; Unstimulated MM6 cells): 6 ± 0.5%

B2: IFNγ: recombinant mouse IFNγ (Chemicon), non-TLR agonist (protein, UniProt P01580 23-155, looked up)
Interferon gamma: HGTVIESLESLNNYFNSSGIDVEEKSLFLDIWRNWQKDGDMKILQSQIISFYLRLFEVLKDNQAISNNISVIESHLITTFFSNSKAKKDAFMSIAKFEVNNPQVQRQAFNELIRVVHQLLPESSLRKRKRSRC
up-regulation of the Cpn10 promoter (Cpn10 promoter): did not induce substantial up-regulation
